From patent publication US20170313756A1 (Sanofi, published 2017)
[ ]: non-standard residue; d: D form. The star is where a group is joined. Butanoyl(4-Ph) = O=C(CCCc1ccccc1)*; Stearyl = stearyl group

B1: (Ph(CH2)3CO) HfRW (819) (peptide)
peptide: {Butanoyl(4-Ph)}-H[dF]RW-NH2
B2: (Stearyl) HfRW (820) (peptide)
peptide: Stearyl-H[dF]RW-NH2
B3: peptide 892 (peptide)
peptide: SYSMEHXRWGKPV
modifications: N-terminal acetyl (Ac); C-terminal amide; L-cyclohexylalanine (L-Cha) at 7
notes: also called analog 892
B4: retro-inverso α-MSH (peptide)
peptide: VPKGWRFHEMSYS
modifications: N-terminal acetyl (Ac); C-terminal amide; D-isomers at all residues except Gly 4
B5: peptide 890 (peptide)
peptide: VPKGWRXHEXSYS
modifications: N-terminal acetyl (Ac); C-terminal amide; D-Cha at 7; D-buthionine at 10; D-isomers at all residues except Gly 4
B6: peptide 878 (peptide)
peptide: VPKGWRFHEXSYS
modifications: N-terminal acetyl (Ac); C-terminal amide; D-buthionine at 10; D-isomers at all residues except Gly 4
B7: peptide 869 (peptide)
peptide: VPKGWRXHEMSYS
modifications: N-terminal acetyl (Ac); C-terminal amide; D-cyclohexylalanine (D-Cha) at 7; D-isomers at all residues except Gly 4
B8: peptide 880 (peptide)
peptide: Ac-[dV][dP][dK]G[dW][dR]F[dH][dS][dI][dI][dS][dS]-NH2
SMILES: CC[C@@H](C)[C@@H](NC(=O)[C@@H](CO)NC(=O)[C@@H](Cc1c[nH]cn1)NC(=O)[C@H](Cc1ccccc1)NC(=O)[C@@H](CCCNC(=N)N)NC(=O)[C@@H](Cc1c[nH]c2ccccc12)NC(=O)CNC(=O)[C@@H](CCCCN)NC(=O)[C@H]1CCCN1C(=O)[C@H](NC(C)=O)C(C)C)C(=O)N[C@@H](C(=O)N[C@H](CO)C(=O)N[C@H](CO)C(N)=O)[C@H](C)CC
B9: peptide 872 (peptide)
peptide: VPKGWRFREMSYS
modifications: N-terminal acetyl (Ac); C-terminal amide; D-isomers at all residues except Gly 4
B10: peptide 886 (peptide)
peptide: Ac-[dV][dP][dK]G[dW][dR][dF][dH][dS][dI][dI][dS][dS]-NH2
SMILES: CC[C@@H](C)[C@@H](NC(=O)[C@@H](CO)NC(=O)[C@@H](Cc1c[nH]cn1)NC(=O)[C@@H](Cc1ccccc1)NC(=O)[C@@H](CCCNC(=N)N)NC(=O)[C@@H](Cc1c[nH]c2ccccc12)NC(=O)CNC(=O)[C@@H](CCCCN)NC(=O)[C@H]1CCCN1C(=O)[C@H](NC(C)=O)C(C)C)C(=O)N[C@@H](C(=O)N[C@H](CO)C(=O)N[C@H](CO)C(N)=O)[C@H](C)CC
B11: peptide 893 (peptide)
peptide: VPKGWRFHEMSYS
modifications: N-terminal acetyl (Ac); C-terminal amide; L-Trp at 5; D-isomers at all other residues except Gly 4
B12: peptide 894 (peptide)
peptide: VPKGWRFHEMSYS
modifications: N-terminal acetyl (Ac); C-terminal amide; L-Arg at 6; D-isomers at all other residues except Gly 4
B13: peptide 895 (peptide)
peptide: VPKGWRFHEMSYS
modifications: N-terminal acetyl (Ac); C-terminal amide; L-His at 8; D-isomers at all other residues except Gly 4

molecular target: T1, melanocortin 3 receptor (MC3R) (UniProt P41968 1-323, limits assumed); assay: 125I-NDP-MSH competition, HEK293 membranes
T1 construct: whole, on cells; Membrane preparations; also called MCR-3
T1 sequence (P41968 whole entry): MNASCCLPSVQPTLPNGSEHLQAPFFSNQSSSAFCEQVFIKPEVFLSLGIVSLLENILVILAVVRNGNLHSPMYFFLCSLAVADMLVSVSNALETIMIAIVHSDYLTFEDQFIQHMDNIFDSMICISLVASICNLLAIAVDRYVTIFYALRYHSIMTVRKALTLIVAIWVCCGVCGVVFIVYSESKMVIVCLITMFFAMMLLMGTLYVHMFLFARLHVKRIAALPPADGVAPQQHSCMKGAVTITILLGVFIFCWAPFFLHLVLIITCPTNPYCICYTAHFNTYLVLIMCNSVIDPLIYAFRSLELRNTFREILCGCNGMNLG
Excerpt: (§1) The mixtures were filtered through 96-well GFC filters (Millipore, Billerica, Mass.), washed 3 times with binding buffer without BSA, dried and counted.

First: B1
Second: B2
The Ki of the first is 4.9-fold lower: 277 nM for the first, 1370 nM for the second. The first binds more tightly here.

molecular target: T2, melanocortin 5 receptor (MC5R) (UniProt P33032 1-325, limits assumed); assay: 125I-NDP-MSH competition, HEK293 membranes
T2 construct: whole, on cells; Membrane preparations; also called MCR-5
T2 sequence (P33032 whole entry): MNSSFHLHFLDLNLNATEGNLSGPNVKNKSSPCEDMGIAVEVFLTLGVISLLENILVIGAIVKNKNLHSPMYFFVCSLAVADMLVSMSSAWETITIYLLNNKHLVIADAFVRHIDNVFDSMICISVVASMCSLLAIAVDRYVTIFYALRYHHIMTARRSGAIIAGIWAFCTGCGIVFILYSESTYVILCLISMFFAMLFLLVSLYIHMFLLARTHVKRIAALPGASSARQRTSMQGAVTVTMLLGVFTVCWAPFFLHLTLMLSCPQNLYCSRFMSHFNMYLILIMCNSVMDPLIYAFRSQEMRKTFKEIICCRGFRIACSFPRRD
Excerpt: as §1

First: B1
Second: B2
The Ki of the first is 3.5-fold higher: roughly 3000 nM for the first, 860 nM for the second. The second binds more tightly here.

molecular target: T3, melanocortin 1 receptor (MC1R) (UniProt Q01726 1-317, limits assumed); assay: 125I-NDP-MSH competition, HEK293 membranes
T3 construct: whole, on cells; Used as membrane preparations, not whole cells; also called MCR-1; MCR1
T3 sequence (Q01726 whole entry): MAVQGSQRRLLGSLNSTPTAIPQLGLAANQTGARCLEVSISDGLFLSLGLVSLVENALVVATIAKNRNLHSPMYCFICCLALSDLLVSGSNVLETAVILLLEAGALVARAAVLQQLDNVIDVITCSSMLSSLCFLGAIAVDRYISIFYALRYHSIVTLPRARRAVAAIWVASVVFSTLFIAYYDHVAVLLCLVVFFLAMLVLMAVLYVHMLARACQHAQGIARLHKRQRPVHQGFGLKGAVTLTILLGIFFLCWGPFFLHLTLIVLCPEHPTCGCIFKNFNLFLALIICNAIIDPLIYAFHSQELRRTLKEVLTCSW
Excerpt: as §1

Compared with B3, B1 is 7.3-fold lower in Ki: 0.51 nM for the first, 0.07 nM for the second. The second binds more tightly here.

B2 showed a Ki of 1.3 nM.

molecular target: mouse MC1R (on murine B16-F1 melanoma cells) (mouse, UniProt Q01727 1-315); assay: cell-based or functional assay
Sequence (Q01727 whole entry): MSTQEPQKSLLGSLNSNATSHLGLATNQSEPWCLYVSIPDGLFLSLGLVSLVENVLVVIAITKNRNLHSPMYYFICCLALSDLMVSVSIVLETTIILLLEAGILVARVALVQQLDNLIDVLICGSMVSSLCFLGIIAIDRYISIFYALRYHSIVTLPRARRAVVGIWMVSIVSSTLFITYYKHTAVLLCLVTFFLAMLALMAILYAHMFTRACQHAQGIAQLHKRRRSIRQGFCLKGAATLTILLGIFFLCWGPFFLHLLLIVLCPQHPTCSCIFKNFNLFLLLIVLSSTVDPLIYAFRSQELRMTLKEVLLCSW

Going from B4 to B5, the “EC50, cAMP in B16-F1 cells” value falls from 9700 nM to 3600 nM (2.7-fold).

Going from B6 to B7, the “EC50, cAMP in B16-F1 cells” value falls from 130 nM to 14 nM (9.3-fold).

First: B8
Second: B9
The “EC50, cAMP in B16-F1 cells” value of the first is 87-fold lower: 23 nM for the first, 2000 nM for the second.

Going from B3 to B10, the “EC50, cAMP in B16-F1 cells” value falls from 21 nM to 2 nM (10-fold).

Going from B11 to B12, the “EC50, cAMP in B16-F1 cells” value rises from 270 nM to 212000 nM (790-fold).

For B13, the “EC50, cAMP in B16-F1 cells” value was 300 nM.
